In article PMC6894071:

Assays:
[1] = target: Feline CAT1/SLC7A1, endogenous in CC81-GREMG cells (feline (endogenous in CC81-GREMG)); test: flow cytometry on cells
[2] = target: EGFP-tagged bovine cationic amino acid transporter 1 (CAT1)/solute carrier family 7 member 1 (SLC7A1) (bovine) (UniProt F1N5P6); test: flow cytometry on cells

Substance: Bovine leukemia virus envelope glycoprotein (Env) on BLV particles (from UniProt P03380 34-301; P03380 302-515) (complex)
- percent of cells bound with BLV particles (with control serum 1:10) [1]: 57%
- percent of cells bound with BLV particles (with control serum 1:50) [1]: 49%
- percent APC-EGFP double-positive cells at 1 h [2]: 18.7%
- percent APC-EGFP double-positive cells at 2 h [2]: 23.7%
